Data as given in patent publication US20080311122A1, “Antagonists of Hmgb1 and/or Rage and Methods of Use Thereof” (Medimmune, LLC, priority 2005, published 2008).

B1: G2: human anti-HMG1 IgG1 from Fab phage display library; VL/VH aa SEQ ID NO: 30/32 (antibody, listed as Homo sapiens, V domains shown)
VH: EVQLLESGGGLVQPGGSLRLSCAASGFTFSWYKMQWVRQAPGKGLEWVSGISPSGGSTAYADSVKGRFTISRDNSKNTLYLQMNSLRAEDTAVYYCAKMGLFNTGNSYVDYWGQGTLVTVSS
VL: AQSELTQPPSVSEAPGQRVTISCSGSTSNIGNNAVIWYQQLPGKAPKLLIYYDDLLPSGVSDRFSGSKSGTSGSLAISGLQSEDEADYYCASWDDNLNGPLFGGGTKLTVL
B2: G20: human anti-HMG1 antibody; VL/VH aa SEQ ID NO: 46/48 (antibody, listed as Homo sapiens, V domains shown)
VH: EVQLLESGGGLVQPGGSLRLSCAASGFTFSWYDMFWVRQAPGKGLEWVSWISPSGGYTKYADSVKGRFTISRDNSKNTLYLQMNSLRAEDTAMYYCARSGLDYYDSSGYLDAFDIWGQGTMVTVSS
VL: AQDIQMTQSPSSVSASVGDRVTITCRASQDVSIWLAWYQQKPGKAPKLLIFGASRLQSGVPSRFSGSRSGADFTLTIDSVQPEDFASYYCQQADSFPLTFGGGTKVEIK
B3: S17: human anti-HMG1 antibody; VL/VH aa SEQ ID NO: 70/72 (antibody, listed as Homo sapiens, V domains shown)
VH: EVQLLESGGGLVQPGGSLRLSCAASGFTFSYYDMHWVRQAPGKGLEWVSRISPSGGYTWYADSVKGRFTISRDNSKNTLYLQMNSLRAEDTAVYYCTRGRYTSGWHEYFDPWGQGTLVTVSS
VL: AQDIQMTQSPSSLSASVGDRVTITCRASQSIGTYLNWYQQKPGTAPKVLIYAASSLQSGVPSRFSGSGSGTDFTLTISSLQPEDFSTYYCQQSYNTPRTFGQGTKLEIK
B4: G9: human anti-HMG1 antibody; VL/VH aa SEQ ID NO: 34/36 (antibody, listed as Homo sapiens, V domains shown)
VH: EVQLLESGGGLVQPGGSLRLSCAASGFTFSSYDMFWVRQAPGKGLEWVSRISPSGGYTYYADSVKGRFTISRDNSKNTLYLQMNSLRAEDTAVYYCARLRYFDSRGYAFDIWGQGTMVTVSS
VL: AQDIQMTQSPGTLSLSPGERATLSCRASQSVRSSYLAWYQQKPGQAPRLLIYGASTRATGIPDRFSGSGSGTDFTLTISRLEPEDFAVYYCQQYGTSRWTFGQGTKVEIK
B5: S10: human anti-HMG1 antibody; VL/VH aa SEQ ID NO: 58/60 (antibody, listed as Homo sapiens, V domains shown)
VH: EVQLLESGGGLVQPGGSLRLSCAASGFTFSWYDMWWVRQAPGKGLEWVSWIVPSGGITAYADSVKGRFTISRDNSKNTLYLQMNSLRAEDTATYYCARGNYGPSPFDYWGQGTLVTVSS
VL: AQDIQMTQSPGTLSLSPGERATLSCRATQSVRKNFLAWYQQKPGQAPRLLIYDASSRATGIPDRFSGSGSGTDFTLTISRLEPEDFAVYYCQQYGNSPIIFGQGTRLEIK
B6: S12: human anti-HMG1 antibody; VL/VH aa SEQ ID NO: 62/64 (antibody, listed as Homo sapiens, V domains shown)
VH: EVQLLESGGGLVQPGGSLRLSCAASGFTFSKYIMHWVRQAPGKGLEWVSGIVPSGGLTEYADSVKGRFTISRDNSKNTLYLQMNSLRAEDTATYYCAKEIFGQFDYWGQGTLVTVSS
VL: AQSALTQPPSVSAAPRQRVTISCSGSTSNIGNNAVTWYQYFPGKAPKLLIYSDNQRPSGVPDRFSGSKSGTSASLAITGLQAEDEADYYCQSYDRGLSVVFGGGTKLTVL
B7: E11: human anti-HMG1 antibody, recognizes HMG1 A-Box; VL/VH aa SEQ ID NO: 24/26 (antibody, listed as Homo sapiens, V domains shown)
VH: EVQLLESGGGLVQPGGSLRLSCAASGFTFSRYQMNWVRQAPGKGLEWVSSISPSGGHTHYADSVKGRFTISRDNSKNTLYLQMNSLRAEDTAVYYCAKDGRQGKISTVDHWGQGTLVTVSS
VL: AQDIQMTQSPGTLSLSPGERATLSCRASQSVRSNFLAWYQQKPGQAPRLLIYGASRRASGIPDRFSGSGFGADFTLSISRLEPEDFAVYYCQQYGSSPNTFGQGSRVEIK
B8: S16: human anti-HMG1 antibody, ATCC PTA-6259; VL/VH aa SEQ ID NO: 13/15 (antibody, listed as Homo sapiens, V domains shown)
VH: EVQLLESGGGLVQPGGSLRLSCAASGFTFSWYSMLWVRQAPGKGLEWVSYISPSGGFTNYADSVKGRFTISRDNSKNTLYLQMNSLRAEDTAVYYCARWDYNSGWYYDHWGQGTLVTVSS
VL: AQDIQMTQSPDTLSLSPGERATLSCRASQSVNSRNLAWYQQKPGQAPRLLIYGASTRATGIPDRFSGSVSGTEFTLTISSLQPDDFATYYCQQYNSYFTFGQGTKLEIK

biological target: T1, recombinant HMG1 (Homo sapiens, UniProt P09429); experiment: HMG1 binding affinity via BIAcore analysis; details: not given
T1 construct: made in house; host or cells: E. coli
T1 sequence (P09429 1-215): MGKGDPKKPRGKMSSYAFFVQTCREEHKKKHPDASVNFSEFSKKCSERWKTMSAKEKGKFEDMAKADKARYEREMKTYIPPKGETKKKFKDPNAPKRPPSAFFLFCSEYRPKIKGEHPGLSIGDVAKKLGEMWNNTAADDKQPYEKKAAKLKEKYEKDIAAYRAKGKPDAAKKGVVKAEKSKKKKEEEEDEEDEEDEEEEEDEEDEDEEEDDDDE
Experimental: HMG1 Binding Affinity via BIAcore Analysis: All experiments were performed on a BIAcore 3000 instrument (BIAcore, Inc., Piscataway, N.J.). Briefly, each mAb was immobilized to a CM5 sensor chip using a standard amino coupling chemistry. Separately a reference (control) flow cell was also prepared. Two-fold, serial dilutions of HMG1 in instrument buffer were sequentially injected at a slow flow rate over the individual mAb and reference flow-cell surfaces. Following the binding and dissociation of HMG1, the mAbs surfaces were regenerated with a brief pulse of 1M NaCl-50 mM NaOH. At the end of each experiment, the binding curves were evaluated using a steady-state model available through the BIA evaluation software supplied by BIAcore, Inc. (Piscataway, N.J.).

Row | Molecule | Kd [µM]
1 | B1 | 0.101
2 | B2 | 0.114
3 | B3 | 0.331

tested on: not listed separately; experiment: Differential scanning calorimetry; type: physicochemical; design: unit: °C; details: in °C (unit assumed)
Experimental: Differential Scanning Calorimetry: Thermal melting temperatures (Tm) were measured with a VP-DSC (MicroCal, LLC) using a scan rate of 1.0° C./min and a temperature range of 25-120° C. A filter period of 8 seconds was used along with a 5 minute pre-scan thermostating. Samples were prepared by dialysis into 25 mM Histidine-HCl, pH 6 using Pierce dialysis cups (3.5 kD). Average Mab concentrations were 50 μg/mL as determined by A280. Melting temperatures were determined following manufacturer procedures using Origin software supplied with the system. Briefly, multiple baselines were run with buffer in both the sample and reference cell to establish thermal equilibrium. After the baseline was subtracted from the sample thermogram, the data were concentration normalized and fitted using the deconvolution function.

Row | Molecule | Tm
4 | B1 | 67.1
5 | B4 | 77.9
6 | B5 | 75.3
7 | B2 | 71.2
8 | B6 | 66.9
9 | B7 | 66.3
10 | B8 | 71.4
11 | B3 | 90.0

tested on: mouse CLP model of sepsis; experiment: Cecal ligation and puncture (CLP) model of sepsis; type: in vivo; details: percent protection, isotype control subtracted
Experimental: Anti-HMGB1 in Sepsis: To establish live intra-abdominal infection and sepsis, Balb/C mice (9-11 per group) were subjected to the CLP procedure as described previously (Fink and Heard, 1990, J Surg Res 49:186-196; Wichmann et al., 1996, J Surg Res 65, 109-114). After anesthesia with an intramuscular injection of ketamine (75 mg/kg, Fort Dodge Laboratories, Fort Dodge, Iowa) and xylazine (20 mg/kg, Bochringer Ingelheim), a 15-mm midline incision was made to expose the cecum. After ligation 5.0 mm from the tip, the cecal stump was punctured once with a 22-gauge needle, and small amount of stool (1-mm length) was extruded. The cecum was placed back into its normal intra-abdominal position, and the wound was closed with two layers of running suture. All animals received saline-solution (0.9% s.c., 20 ml/kg of body weight) resuscitation, and a single dose of antibiotic (0.5 mg of imipenem per mouse in 200 μl of sterile saline injected s.c.) (Primaxin, Merck) 30 min after surgery.
Anti-HMG1 antibodies or isotype control antibodies (50 μg/mouse in a 200 μl volume), were administered intraperitoneally at 24 and 48 hours, post surgery. In certain follow up experiments anti-HMG1 antibodies or isotype control antibodies (8 mg/kg) were administered intraperitoneally at 24 hours, post surgery (FIG. 11C-D). These experiments were blinded—the surgeons randomized the cages, and the encoded antibodies were dosed by another investigator. The survival of the mice was monitored twice daily for a total of 14 days. The survival curves for several representative experiments where the antibodies were delivered at 50 μg/mouse at times 24 and 48 are shown in FIGS. 11A and 11B. The survival curve generated by combining several representative experiments where the antibodies were delivered at 8 mg/kg 24 hours post surgery is shown in FIG. 11C. Several additional antibodies and the oligoclonal antibody pool were tested at 8 mg/kg administered 24 hours post surgery (FIG. 11D).

Row | Molecule | in vivo CLP
12 | B1 | 60%
13 | B7 | 35%
14 | B8 | 60-75%

biological target: T2, HMG1 peptides (Homo sapiens, UniProt P09429); experiment: HMG1 B Box and peptide mapping ELISA; type: binding; details: B Box peptide ELISA
T2 sequence (P09429 91-169 P98L): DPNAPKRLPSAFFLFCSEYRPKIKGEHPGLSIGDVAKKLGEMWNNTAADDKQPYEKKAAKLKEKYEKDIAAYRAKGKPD
Experimental: (§1) HMG1 B Box and Peptide Mapping: Individual wells of a 96-well immunoplate (EIA/RIA plate, High binding, Costar) were coated with HMG1 B Box peptide amino acids 91-169 (FIG. 5A) or amino acids 150-183 (FIG. 5B) at 10 μg/ml in PBS at 4° C. overnight. The plate was then blocked with 4% milk powder dissolved in PBS at 37° C. for 1 hour. The blocking solution was removed and replaced with human anti-HMG1 antibodies at various concentrations (see FIGS. 5A-B). The plate was then washed (ELX-405 Plate washer, BIO-TEK) and secondary antibody (anti-human IgG-HRP, PIERCE) was added at a final concentration of 1:125,000 at 37° C. for 1 hour. HRP activity was detected with Sureblue HRP substrate (KPL). Plates were read at 450 nm using a Kinetic Microplate Reader (Molecular Devices). To obtain more detailed peptide mapping information, similar ELISA assays were performed using 16 biotinylated overlapping peptides spanning the HMGB1 protein from amino acid 1 to 215 as follows, maxisorp microtiter plate was coated with 2 μg/ml of NeutroAvidin (Pierce) overnight at 4° C. After washing and blocking with 1% BSA in PBS, the biotinylated peptides were individually added into the avidin coated wells and incubated for 30 min at room temperature. The serial diluted antibody G4, S16 and S6 at the initial concentration at 10 μg/ml were then transferred into the wells followed by adding mouse anti human IgG-HRP conjugate (Pierce). Detection was accomplished by adding 50 μl of tetramethylbenzidine (TMB) substrate (KPL) and the absorbance was read at […]. The peptides used were amino acids: 46-63; 61-78; 76-93; 91-108; 106-123; 136-153; 151-168; 166-183; 179-185; 181-198; and 196-215.

Row | Molecule | binding to HMG1 peptide 91-169
15 | B1 | do not bind either of the HMG1 B Box peptides
16 | B4 | do not bind either of the HMG1 B Box peptides
17 | B5 | do not bind either of the HMG1 B Box peptides
18 | B6 | bind to HMG1 peptide 91-169
19 | B8 | bind to HMG1 peptide 91-169

biological target: T3, HMG1 peptides (Homo sapiens, UniProt P09429); experiment: HMG1 B Box and peptide mapping ELISA; type: binding; details: B Box peptide ELISA
T3 sequence (P09429 150-183): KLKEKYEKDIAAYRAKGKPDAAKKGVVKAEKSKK
Experimental: as §1

Row | Molecule | binding to HMG1 peptide 150-183
20 | B1 | do not bind either of the HMG1 B Box peptides
21 | B4 | do not bind either of the HMG1 B Box peptides
22 | B5 | do not bind either of the HMG1 B Box peptides
23 | B6 | only S12 binds to HMG1 peptide 150-183
